Results reported in the supplement of paper PMC9170038.

Tested on: K4 kissing-loop RNA reporter
Assay: apparent KD of K4 kissing-loop reporter; higher = weaker reporter binding
Settings: Eterna round: R107
Description: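 RNA-MaP round R107: designed RNA switches with theophylline, tryptophan, arginine or FMN aptamers are transcribed on-chip within common flanks. They are titrated with a labelled K4 kissing-loop RNA reporter in RNA-MaP buffer (100 mM Tris pH 7.5, 80 mM KCl, 4 mM MgCl2), without ligand or with the indicated ligand. Median apparent KD per design.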

[1] = input ligand: theophylline 20 uM
[2] = input ligand: tryptophan 2.4 mM
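Further: bound reporter read as fluorescence of individual clusters on recovered sequencing chips by microscopy, with normalized cluster intensities fitted with a binding model.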

| Sequence | apparent KD of K4 kissing-loop reporter (input ligand: FMN 200 uM) | apparent KD of K4 kissing-loop reporter (input ligand: arginine 13.2 mM) | apparent KD of K4 kissing-loop reporter (input ligand: none) | apparent KD of K4 kissing-loop reporter [1] | apparent KD of K4 kissing-loop reporter [2] |
| --- | --- | --- | --- | --- | --- |
| GCCGUACGCAUGGAUACCAGCUGCGAAGUGAUGUUUCGGGCGAUCAAAGGAUCGCCCUACAGCCCUUGGCAGCCAUGCGUACGGC | 215 nM | 117 nM | 173 nM | 125 nM | 118 nM |
| GCCGUAGAUGGAAGGAGCGUGGUAGACUGUUGAAGUGAUGUUUCAACUCAUUAAGCCCAACCACAGGUAGGUCGCCAUCUACGGC | 133 nM | 107 nM | 107 nM | 112 nM | 120 nM |
| GCCGUAGAUUGAAGGAGCGGGCCGUAGUGAUGUUACGCCAAAUUAUCCUUUCUUGAGGUGGUCCAGGUAGGUCGCAAUCUACGGC | 168 nM | 144 nM | 148 nM | 109 nM | 118 nM |
| GCCGUAGAUUGAAGGAGCGGUGAAUGCAGGUGAGUCCUUUAGAUGUUUAGUGAUGUUAAACACCAGGUAGGUCGCAAUCUACGGC | 235 nM | 178 nM | 203 nM | 200 nM | 192 nM |
| GCCUACGUAGCAGGAUAUAGGUAAGUGAGUGAUGUUCAAGAGUUCUGGAGUGAUGUUCCAAUCUGACUAGAAGGGCUACGUAGGC | 58.4 nM | 45.2 nM | 79.3 nM | 57.3 nM | 54.1 nM |
| GCGCGCGGCGGAGGAUAUAGCAGGUGAUCCAAGAAAGUGAGUGAUGUUUAUGGAGAUGAUGAUAUGUUAGAAGGCCGCCGCGCGC [abcdefghijklmnopqrstu] | 803 nM | 448 nM | 626 nM | 847 nM | 474 nM |
| GCGCGGCUCAGUGAUGUUGAGCCUCGGAGACGAGGACCGGUACGGCCGCCACUCGUCCGCGCAGCUGAGGCAAAAGCCUCGGCAA [Omei KL Tryp A SS B v3] | 201 nM | 195 nM | 189 nM | 186 nM | 141 nM |
| GCGCGUCAUGUCAGCGGUGACACUGUCGAUACCAGUGCCGCAAGGCGCCCUUGGCAGCGACGUGCUGGAGUGAUGUUCCAGCGUU [#2 Exclusion - Theophylline A Attempt #29 (HarryS)] | 156 nM | 122 nM | 161 nM | 152 nM | 124 nM |
| GCGCGUCAUGUCAGCGGUGACUACGUCGAUACCAGCAGGGAAACCUGCCCUUGGCAGCGACGCGCUGGAGUGAUGUUCCGACGGC [#2 Exclusion - Theophylline A Attempt #7 (HarryS)] | 184 nM | 176 nM | 180 nM | 318 nM | 159 nM |
| GCGCGUCAUGUCAGCGGUGACUAUGUCGAUACCAGCGCCGCAAGGCGCCCUUGGCAGCGACGCGCUGGAGUGAUGUUCCGACGGC [#2 Exclusion - Theophylline A Attempt #9 (HarryS)] | 144 nM | 153 nM | 148 nM | 159 nM | 129 nM |
| GCGGCCCAGCCGGAUACCAGUGAGCCGCUGGGAACCGCGGGCCCAGAGUGAUGUUCGGGACACCCUUGGCAGCCGCCUGGGUCGC [#2 Same State - Theophylline B Attempt #20 (HarryS)] | 486 nM | 293 nM | 643 nM | 301 nM | 491 nM |
| GCGGGCCAGACGGCCGCCACUCCGGGCAGUGAUGUUGCGAAACUUCUACUAGAGUGAUGUUCUACGAGGACCGGGUCGGAACGCG [Exclusion Tryptophan B Gf 13] | 789 nM | 703 nM | 951 nM | 1000 nM | 578 nM |
| GCGUAGGAAGAAGGAUAUCACAGGAUGCCACGUUAGUGAUGUUAAUUUGGUUCAGCGCGAUUCUGAUGAGAAGGUCUUUUAUGAU [theeternabot_sameState_KL_FMN_B_47] | 220 nM | 300 nM | 295 nM | 205 nM | 210 nM |
| GCGUCACGUCGGGAUACCAGAGAAAUGGCAUUAGCCAAUGACGAGUGAUGUUCGUAGGCGCUCCCUUGGCAGCCCACCGGGAGGA [theeternabot_sameState_KL_Theo_B_21] | 351 nM | 218 nM | 311 nM | 340 nM | 278 nM |
| GGACAACUAUGUCCCAUACAAACAAGAGAUACCAGCCAUCAUAGAGGCCCUUGGCAGCUCAUAUAAUCCAGUGAUGUUGGAUUUC [Atgebeus] | 165 nM | 215 nM | 179 nM | 149 nM | 148 nM |
| GGACCUCAGUGAUGUUGAGGUAACGCUGAUACCAGUGACUUAAUUCGCCCUUGGCAGCAGUCCACCGAGGUAUCUGAUUAGGUCU [Default title] | 133 nM | 145 nM | 149 nM | 155 nM | 139 nM |
| GGAGGAGAAUAUGAUACCAGCAGAGAGAGAUACGAAGUAUAGUGAUGUUAUAUGAGAGAAUGCCCUUGGCAGCAUAAGACGCAGG [#08 K4 Theophylline B Same State] | 86 nM | 83.3 nM | 116 nM | 95 nM | 84.8 nM |
| GGAGUCCCGUUAGAUUGUGUAGAUACAAGACGAGGACCGGUACGGCCGCCACUCGCCAUCGUCCAGUGAUGUUGGGCGUCACGGG [theeternabot_sameState_KL_Trp_A_30] | 262 nM | 179 nM | 235 nM | 227 nM | 219 nM |
| GGAGUUACCUGGGAUACCAGUCGGAGUCCCAGAGCACAGAGUGAUGUUCUGGGAUGUUUCGGCCCUUGGCAGCUCUGGGACUCCC [#2 Exclusion - Theophylline B Attempt #13 (HarryS)] | 482 nM | 254 nM | 142 nM | 402 nM | 222 nM |
| GGAUAGGAAAGAGGAUAUGGGCUAGGCAAGAAUAACUUGUCUAGCAAAUCCAUGAGGAGUGAUGUUCCAGAAGGCUUUCCUAUCG [FmnBX 1 A9+U77] | 995 nM | 141 nM | 160 nM | 157 nM | 126 nM |
| GGAUAGGACAGAGGAUAUCCUUGAGGCAAGAAACUUGUCUCUAAAAGGAUGAACCUAGUGAUGUUAGGAGAAGGCUGUCCUAUCG [FmnBX 13 - #SwitchBubble #StaticStem #Palindromic] | 132 nM | 90 nM | 98.2 nM | 85 nM | 95.9 nM |

| Sequence | apparent KD of K4 kissing-loop reporter (input ligand: FMN 200 uM) | apparent KD of K4 kissing-loop reporter (input ligand: arginine 13.2 mM) | apparent KD of K4 kissing-loop reporter (input ligand: none) | apparent KD of K4 kissing-loop reporter [1] | apparent KD of K4 kissing-loop reporter [2] |
| --- | --- | --- | --- | --- | --- |
| GGAUAGGACAGAGGAUAUCCUUGAGGCAAGAAACUUGUCUCUAAAGGAUGAAUCCUAGUGAUGUUAGGAGAAGGCUGUCCUAUCG [FmnBX 14 - #SwitchBubble #StaticStem #Palindromic] | 103 nM | 82.2 nM | 85 nM | 77.2 nM | 87.1 nM |
| GGAUAGGACAGAGGAUAUGGACAGUCUACAAAGUAGGCUGAAAAUCCUUGAAUGGAAGUGAUGUUUCUAGAAGGCUGUCCUAUCG [FmnBX 19 - #SwitchBubble #StaticStem #Palindromic] | 800 nM | 160 nM | 190 nM | 174 nM | 180 nM |
| GGAUAGGACAGAGGAUAUGGUAGUGAUGUUACCAAACUGGUUACUUUUGUCAGAAAACUGGCAUUUCCAGAAGGCUGUCCUAUCG [KL-XFMN-B12] | 287 nM | 71 nM | 68.6 nM | 58 nM | 68.3 nM |
| GGAUAGGACAUAGGAUAUGGGCUAGGCAAGAAUAACUUGUCUAGCAAAUCCAUGAGGAGUGAUGUUCCAGAAGGAUGUCCUAUCG [FmnBX 1 U11+A75] | 566 nM | 108 nM | 112 nM | 123 nM | 84.5 nM |
| GGAUAGGACGGAGGAUAUGGUAGUGAUGUUACCAAACUGGUUAAACAUGUCAGAAAACUGGCAUGACCAGAAGGCCGUCCUAUCG [FmnBX 27 G10+C76] | 108 nM | 62.6 nM | 69.6 nM | 61.6 nM | 67.4 nM |
| GGAUAGGAUAGAGGAUAUGGUUUAGGCAAGAAUAACUUGUCAUGUAAAUCCAUGAGGAGUGAUGUUCCAGAAGGCUGUCCUAUCG [MatMod 8 - Jieux - Exclusion - FMN B] | 576 nM | 123 nM | 121 nM | 142 nM | 91.8 nM |
| GGAUAGGAUAGAGGAUAUGGUUUAUGCAGGAAUAACUUAUCGUGUAAAUCCAUAGGGAGUGAUGUUCCAGAAGGCUGUCCUAUCG [MatMod 13 - Jieux - Exclusion - FMN B] | 408 nM | 202 nM | 228 nM | 250 nM | 170 nM |
| GGAUCCACCAGUGAUGUUGGAGAAAACUCCAAGGAUAUGACGAAAGUCAGAAGGUGGUAGACUGGACAAAGUCCGGUGGGAUCCA [FmnA10 G78] | 661 nM | 141 nM | 392 nM | 438 nM | 88.7 nM |
| GGAUGGUAGGCGGCCGCCACUAAAACAGAACACAUACAAGCCAGUGAUGUUGGUAUGAUGGUGUAUAGGACCGGGCCUAGAUAGA [Exclusion - Tryptophan B (Freestyle 5)] | 197 nM | 178 nM | 199 nM | 186 nM | 196 nM |
| GGAUGGUAGGCGGCCGCCACUAAAACUGAACACAUACAAGCCAGUGAUGUUGGUAUGAUGAAGUAUAGGACCGGGCCUAGAUAGA [Exclusion - Tryptophan B (Freestyle 3)] | 446 nM | 384 nM | 422 nM | 502 nM | 469 nM |
| GGAUUUGAAAGUGAGUGAUGUUCAUGUUGUGAGGAUAUGUAGAGAUAUAGAAGGCACGUUUGUAUUUUUUUUGUGUGAGAUUAAA [Last Minute #1] | 81.5 nM | 64.9 nM | 65.1 nM | 75.2 nM | 65.5 nM |
| GGCACGGUGGCGCGACUGCCGUGCGCUUGGGAGGAUAUGUUUCGUGACAGAAGGCCCAGUGAUGUUGGGUCUGUUCAAAAGGACU [Gegearer] | 359 nM | 125 nM | 127 nM | 130 nM | 112 nM |
| GGCAUAUGGGCAGGAUAUAGGCAGGUAGAGUGAUGUUCUUUCUGAAUAAUUCCAUCCUUCUACCUACUAGAAGGGCCCAUAUGCC | 56.5 nM | 106 nM | 68.7 nM | 110 nM | 67.9 nM |
| GGCAUCCAUGGACAUAGUGAUGUUAUGUACCGAGGACCGGUACGGCCGCCACUCGGCCAUGGAUGCCGCAAUCGGAAACGAUUGC | 868 nM | 558 nM | 885 nM | 667 nM | 290 nM |
| GGCCCGGGCUCGGCCGCCACUCCCUCGUACCGCAAGGUAUGAUACCGAGUGAUGUUCGGUUGGAGGAGGACCGGGAGCCCGGGCC [#2 Exclusion - Tryptophan B Attempt #6 (HarryS)] | 116 nM | 118 nM | 106 nM | 101 nM | 102 nM |
| GGCGGCCGCGCGCAAGCGCGGCCGGCCGAUACCAGCGCGACGGCGCGCCCUUGGCAGCGGCGCCGAGUGAUGUUCGGCCUGCCGG [#2 Same State - Theophylline A Attempt #16 (HarryS)] | 376 nM | 447 nM | 585 nM | 454 nM | 482 nM |
| GGCUUACUAGUGAUGUUAGUAUUUUCUGAAGGAGCGCGUGAAAACGCAGGUAGGUCGCAGAACCUUGCCAACUAUUUUAGUUGCC [Ex Arginine A K4 28] | 144 nM | 157 nM | 115 nM | 136 nM | 104 nM |
| GGGAAGGGACACAAGGAGGAACGAAGGGAAGGAGCGCCGGAGGAGGCAGGUAGGUCGCCCAACCAGUGAUGUUGGAAUUUAAUCC [Default title] | 242 nM | 125 nM | 287 nM | 114 nM | 196 nM |
| GGGAGGAGUGGUGUUGAUUAGGGAGCGGAAGGAGCGCCGAGGAAGGCAGGUAGGUCGCCGGAUUAUAGUGAUGUUAUGAAGAGGG [ExArg.J] | 663 nM | 716 nM | 679 nM | 1010 nM | 577 nM |
| GGGAGUAUUGCGGCCGCCACUGAGGAAGAAGAAGGCCAUAGUGAUGUUAUGGAGGAAAGGAAGAACAGGACCGGGCAGUAGAUUU [#22 K4 Tryptophan B Same State] | 154 nM | 157 nM | 175 nM | 188 nM | 127 nM |
| GGGAGUGAUGUUCCCGCGUUGACGGUCCUCCGAGGACCGGUACGGCCGCCACUCGAAACCCAGUGAUGUUGGGACUCACCGUACU [Exclusion Tryptophan A GF 11] | 511 nM | 504 nM | 511 nM | 620 nM | 435 nM |
